Changes are numbered by the printed parent chain. Names may count otherwise. Read-outs that look alike come from different tables or passages of the source. Blank lines part the entries; values can stand above or below the binder they belong to.
Columns and labels:
[1] = biological target: T1, TROP2 on TROP2 positive NCI-H292 or HCT116 tumor cells (UniProt P09758 27-323, limits assumed); test: cell-based or functional assay
T1 sequence (looked up): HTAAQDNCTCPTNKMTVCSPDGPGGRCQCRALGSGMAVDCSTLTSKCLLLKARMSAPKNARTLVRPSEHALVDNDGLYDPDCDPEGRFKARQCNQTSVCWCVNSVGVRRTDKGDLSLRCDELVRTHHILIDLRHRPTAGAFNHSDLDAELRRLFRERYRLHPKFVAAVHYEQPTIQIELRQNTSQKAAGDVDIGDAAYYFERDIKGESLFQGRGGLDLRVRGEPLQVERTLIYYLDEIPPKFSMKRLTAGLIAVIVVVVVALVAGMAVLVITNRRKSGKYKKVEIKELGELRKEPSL

[2] = biological target: T1, TROP2 on TROP2 positive NCI-H292 or …; test: cell-based or functional assay; remark: listed apart in the source
[3] = biological target: T1, TROP2 on TROP2 positive NCI-H292 or …; test: cell-based or functional assay; remark: listed apart in the source
[4] = biological target: T1, TROP2 on TROP2 positive NCI-H292 or …; test: cell-based or functional assay; remark: listed apart in the source
[5] = biological target: T1, TROP2 on TROP2 positive NCI-H292 or …; test: cell-based or functional assay; remark: listed apart in the source
[6] = biological target: T2, cynomolgus monkey TROP2 on recombinant HEK293 cells (cynomolgus monkey, UniProt A0A2K5UE71 27-323); test: cell-based or functional assay
T2 sequence: T1 sequence (looked up) with M36V, K46E, S67N, I204V, M266V, T272S

[7] = biological target: T3, human CD3ε-biotin (biotinylated CD3ε) (human, UniProt P07766 23-126, limits assumed, biotinylated); test: ELISA: biotinylated CD3 captured on neutravidin coated plates, HRP secondary antibody, OD 450 nm
T3 construct: also called CD3e-bio; CD3e-biotin
Method: (§1) The TCE constructs diluted in buffer were then added to the antigen coated plates. Binding was detected using a standard horse radish peroxidase secondary antibody. The concentration of the TCE required to achieve 50% maximal signal (EC₅₀) was calculated using Graphpad Prism software.

[8] = biological target: T4, human TROP2-biotin (biotinylated TROP2) (human, UniProt P09758 27-274, limits assumed, biotinylated); test: ELISA: biotinylated TROP2 captured on neutravidin coated plates, HRP secondary antibody, OD 450 nm
T4 construct: also called hTROP2-Biotin
T4 sequence (looked up): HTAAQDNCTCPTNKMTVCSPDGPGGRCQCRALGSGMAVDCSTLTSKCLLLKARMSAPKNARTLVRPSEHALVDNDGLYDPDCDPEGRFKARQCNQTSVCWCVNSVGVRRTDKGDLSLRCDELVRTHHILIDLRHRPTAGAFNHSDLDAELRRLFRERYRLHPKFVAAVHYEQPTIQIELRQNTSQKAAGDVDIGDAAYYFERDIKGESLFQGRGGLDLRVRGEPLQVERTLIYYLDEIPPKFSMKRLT
Method: as §1

T3 sequence (P07766 23-126 limits assumed): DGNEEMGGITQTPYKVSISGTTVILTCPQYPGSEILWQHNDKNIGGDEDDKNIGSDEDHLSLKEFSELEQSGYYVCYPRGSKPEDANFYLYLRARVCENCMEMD

B1: TCE-1: anti-CD3 scFv wt + linker + anti-TROP2 HC wt, with anti-TROP2 LC wt (bispecific antibody)
light: DIQLTQSPSSLSASVGDRVSITCKASQDVSIAVAWYQQKPGKAPKLLIYSASYRYTGVPDRFSGSGSGTDFTLTISSLQPEDFAVYYCQQHYITPLTFGAGTKVEIKRTVAAPSVFIFPPSDEQLKSGTASVVCLLNNFYPREAKVQWKVDNALQSGNSQESVTEQDSKDSTYSLSSTLTLSKADYEKHKVYACEVTHQGLSSPVTKSFNRGEC
heavy: not shown
H292 Cytotox EC50 (pM) [1]: 0.7 pM | H292 Cytotox EC50 (pM) [2]: 0.7 pM | H292 Cytotox EC50 (pM) [3]: 0.7 pM

B2: TCE-29: anti-CD3 scFv wt + linker + anti-TROP2 (F108A) HC, with anti-TROP2 LC wt (bispecific antibody)
light: B1 light
heavy: not shown
HCT116 Cytotox EC50 (pM) [4]: 109 pM | H292 Cytotox EC50 (pM) [5]: 5 pM | CynoTROP2+ HEK293 cells Cytotox EC50 (pM) [6]: 0.2 pM

B3: TCE-27: anti-CD3 scFv + linker + anti-TROP2 HC wt, with anti-TROP2 LC wt (bispecific antibody)
light: B1 light
heavy: EVQLVESGGGLVQPGGSLKLSCAASGFTFNKYAMNWVRQASGKGLEWVGRIRSKYNNYATYYADSVKDRFTISRDDSKNTAYLQMNSLKTEDTAVYYCVRHGNFGNSYISYWAYWGQGTLVTVSSGGGGSGGGGSGGGGSQTVVTQEPSFSVSPGGTVTLTCRSSTGAVTSGNYANWVQQTPGQAPRGLIGGTKFLAPGVPDRFSGSILGNKAALTITGAQADDESDYYCVLWYSNRWVFGGGTKLTVLGGGGSQVQLQQSGSELKKPGASVKVSCKASGYTFTNYGMNWVKQAPGQGLKWMGWINTYTGEPTYTDDFKGRFAFSLDTSVSTAYLQISSLKADDTAVYFCARGGFGSSYWYFDVWGQGSLVTVSSASTKGPSVFPLAPSSKSTSGGTAALGCLVKDYFPEPVTVSWNSGALTSGVHTFPAVLQSSGLYSLSSVVTVPSSSLGTQTYICNVNHKPSNTKVDKKVEPKSC
H292 Cytotox EC50 (pM) [3]: 0.5 pM

B4: TCE-19: anti-CD3 scFv (W233A) + linker + anti-TROP2 HC wt, with anti-TROP2 LC wt (bispecific antibody)
light: B1 light
heavy: not shown
H292 Cytotox EC50 (pM) [1]: > 1000 pM

B5: TCE-32: anti-CD3 scFv (F240A) + linker + anti-TROP2 (F108A) HC, with anti-TROP2 LC wt (bispecific antibody)
light: B1 light
heavy: not shown
HCT116 Cytotox EC50 (pM) [4]: > 3000 pM | CynoTROP2+ HEK293 cells Cytotox EC50 (pM) [6]: 5 pM

EC50 [7]: 230 pM | EC50 [8]: 870 pM
B6: TCE-49 (bispecific antibody)
light chain (anti-TROP2 LC wt): B1 light
heavy chain (anti-CD3 scFv N236A + linker + anti-TROP2 F108A HC): not shown
notes: also called TCE-49: anti-CD3 scFv (N236A) + linker + anti-TROP2 (F108A) HC, with anti-TROP2 LC wt

B7: TCE-24: anti-CD3 scFv (W238A) + linker + anti-TROP2 HC wt, with anti-TROP2 LC wt (bispecific antibody)
light: B1 light
heavy: not shown
H292 Cytotox EC50 (pM) [1]: > 1000 pM

B8: TCE-35: anti-CD3 scFv wt + linker + anti-TROP2 (D109A) HC, with anti-TROP2 LC wt (bispecific antibody)
light: B1 light
heavy: not shown
H292 Cytotox EC50 (pM) [5]: 1 pM | CynoTROP2+ HEK293 cells Cytotox EC50 (pM) [6]: 0.1 pM

B9: TCE-28: anti-CD3 scFv + linker + anti-TROP2 HC wt, with anti-TROP2 LC wt (bispecific antibody)
light: B1 light
heavy: not shown
H292 Cytotox EC50 (pM) [3]: 2.1 pM

EC50 [7]: 360 pM | EC50 [8]: 1300 pM
B10: TCE-48 (bispecific antibody)
light chain (anti-TROP2 LC wt): B1 light
heavy chain (anti-CD3 scFv L232A + linker + anti-TROP2 F108A HC): not shown
notes: also called TCE-48: anti-CD3 scFv (L232A) + linker + anti-TROP2 (F108A) HC, with anti-TROP2 LC wt

B11: TCE-26: anti-CD3 scFv (F240A) + linker + anti-TROP2 HC wt, with anti-TROP2 LC wt (bispecific antibody)
light: B1 light
heavy: not shown
H292 Cytotox EC50 (pM) [1]: 20 pM

B12: TCE-30: anti-CD3 scFv (H101A) + linker + anti-TROP2 (F108A) HC, with anti-TROP2 LC wt (bispecific antibody)
light: B1 light
heavy: not shown
CynoTROP2+ HEK293 cells Cytotox EC50 (pM) [6]: 1 pM

B13: TCE-33: anti-CD3 scFv + linker + anti-TROP2 (F108A) HC, with anti-TROP2 LC wt (bispecific antibody)
light: B1 light
heavy: B3 heavy with F362A
HCT116 Cytotox EC50 (pM) [4]: 73 pM | H292 Cytotox EC50 (pM) [5]: 3 pM
